Test results: patent CN116041496A

Biological target: H7N9亚型禽流感病毒血凝素(HA)，野生型病毒上 (H7N9亚型禽流感病毒)
Experiment: cell-based or functional assay

B1: H7N9-NeuAb (antibody, V domains shown)
VH: QVQLQQPRAELVMPGASVRMSCQASGYTFTDFWIHWVKQRPGQGLEWIGAIDTSDSYTTYNQNFRGKASLTVDESSSTAYMQLSSLTSEDSAVYYCARLDDGFYNYAMDYWGQGTSVTVSS
VL: NIMMTQSPSSLAVSAGEKVTLNCKSSQSVLNSSNQKNYLAWYQQRPGQSPKLLIYWASTREAGVPDRFTGSGSGTDFTLTISSVKAEDLAVYYCHQYLSSYTFGGGTKLKIK
Q: What does the source list for B1?
A: HI 终点浓度: 1.5 µg/mL; HI效价: 512; 中和 终点浓度: 0.15 µg/mL; 中和效价: 5120
